Measured values reported in patent US20190231872A1 (INDUSTRY ACADEMIC COOPERATION FOUNDATION HALLYM UNIVERSITY, published 2019).
Read-outs that look alike come from different tables or passages of the source. Values belong to the binder of their own block, whether it stands above or below them.

What was measured:
[1] = target: T1, hTM4SF5EC2-C cyclic peptide (human, cyclic: disulfide bond between the cysteines that replace glycine 133 and valine 156 (3rd and 26th residue of the peptide); biotinylated for SPR); assay: ELISA on coated hTM4SF5EC2-C, purified antibody titrated
T1 construct: Chemically synthesized (Peptron); also called cyclic TM4SF5 peptide; TM4SF5 cyclic peptide
T1 peptide: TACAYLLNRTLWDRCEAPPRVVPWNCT

[2] = target: T1, hTM4SF5EC2-C cyclic peptide; assay: SPR (Reichert SPR 7500DC), cyclic peptide hTM4SF5EC2-C on chip, antibody 0 to 3.75 nM, 1:1 binding with mass transfer
Protocol: (§1) The affinities of anti-hTM4SF5 monoclonal antibody (mEC2-C) and humanized anti-TM4SF5 antibody (hEC2-C-2) binding to hTM4SF5EC2-C cyclic peptide were measured at 25° C. using the Reichert SPR system. Biotinylated peptides were captured from each flowing cell surface of a streptoavidin-coated sensor chip. Biotin was used as a negative control. Anti-hTM4SF5 monoclonal antibody (mEC2-C) and humanized anti-TM4SF5 antibody were injected at a flow rate of 30 ml/min. Data were evaluated using Reichert SPR evaluation software.

hTM4SF5R2-3 peptide [3] = target: T2, hTM4SF5R2-3 peptide (human); assay: ELISA on coated hTM4SF5R2-3, purified antibody titrated
T2 peptide: NRTLWDRCEAPPRV

[4] = target: T1, hTM4SF5EC2-C cyclic peptide; assay: SPR, Kd of hEC2-C-2 against Kd of mEC2-C
Protocol: as §1

[5] = target: T1, hTM4SF5EC2-C cyclic peptide; assay: SPR (Reichert SPR 7500DC), biotinylated peptide on streptavidin chip, antibody injected, 25 C
Protocol: as §1

hTM4SF5R2-3 peptide [6] = target: T2, hTM4SF5R2-3 peptide; assay: ELISA on coated hTM4SF5R2-3, purified antibody titrated
[7] = target: T1, hTM4SF5EC2-C cyclic peptide; assay: ELISA on coated hTM4SF5EC2-C, purified antibody titrated
[8] = target: T1, hTM4SF5EC2-C cyclic peptide; assay: SPR (Reichert SPR 7500DC), biotinylated cyclic peptide on streptavidin chip, antibody 0 to 80 nM, 1:1 binding with mass transfer
Protocol: FIG. 6 represents purification and characterization of mouse anti-TM4SF5 monoclonal antibodies recognizing TM4SF5 cyclic peptides. (A) Hydrops abdominis was producted from BALB/c mice by injecting i.p. into the abdominal cavity with hybridoma clone (2A10 clone) derived from FIG. 5. Anti-TM4SF5 monoclonal antibody was purified using protein-A agarose column chromatography and the purified antibody was identified by SDS-PAGE and Coomassie blue staining. (B) The isotype was determined by obtaining titration curves using purified monoclonal antibodies. (C) A binding affinity of monoclonal antibody for cyclic peptide hTM4SF5EC2-C was determined by using ELISA. (D) A binding affinity of monoclonal antibody for cyclic peptide […] was determined by using Reichert Analytical Instruments SPR 7500DC (Reichert). Biotinylated peptides were immobilized on streptavidin chip and the amount of antibody was increased. Kinetic parameters of binding reactions are expressed under sensorgrams.
as §1, with “Anti-hTM4SF5 monoclonal antibody (mEC2-C) and humanized anti-TM4SF5 antibody were injected at a flow rate of 30 ml/min.” left out

[9] = target: T3, Myc-tagged recombinant human TM4SF5 protein (human, UniProt O14894 1-197); assay: Western blot of HEK 293F-EV and HEK 293F-TM4SF5 lysates with hybridoma culture supernatant
T3 construct: whole, on cells; tested in cell lysates by Western blot and immunoprecipitation, not on whole cells; also called hTM4SF5; recombinant TM4SF5 protein; not shown: C-terminal Myc-His tag of the vector pcDNA-3.1/Myc-His(-)B
T3 sequence (looked up): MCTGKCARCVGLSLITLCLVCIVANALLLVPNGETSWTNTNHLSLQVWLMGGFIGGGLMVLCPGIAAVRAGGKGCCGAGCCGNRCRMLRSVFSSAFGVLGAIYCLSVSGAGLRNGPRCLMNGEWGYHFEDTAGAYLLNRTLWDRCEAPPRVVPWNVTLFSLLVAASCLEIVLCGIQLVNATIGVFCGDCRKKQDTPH

EC50 (read off the curve) [1]: ~0.1 nM
Kd [2]: 0.0227 nM
koff [2]: 1e-05 s⁻¹
kon [2]: 440000 M⁻¹ s⁻¹
binding result (hTM4SF5R2-3 peptide [3]): no binding (tested: 1e-6 M)
fold lower Kd than the original mouse monoclonal antibody mEC2-C [4]: ~20 fold
Kd [5]: ~0.0227 nM
B1: humanized anti-TM4SF5 antibody hEC2-C-2 (antibody, V domains shown)
VH: EVQLVESGGGLVQPGGSLRLSCAASGFSLTSYGVTWVRQAPGKGLEWLGVIWSDGSTNYQSALISRLTISRDNSKNTAYLQMNSLRAEDTAVYYCARPSNYYYFDYWGQGTLVTVSS
VL: DIQMTQSPSSLSASVGDRVTITCKSSQSLFDRRTRKTYLAWYQQKPGKAPKLLISWASTRESGVPSRFSGSGSGTDFTLTISSLQPEDFATYYCKQSYNLFTFGQGTKVEIK
notes: hEC2-C-2 is the clone that was expressed and tested; also called hEC2-C-2 Ab; hEC2-C-2 IgG

binding result (hTM4SF5R2-3 peptide [6]): no binding (tested: 1e-6 M)
EC50 (read off the curve) [7]: ~3 nM
Kd [8]: 0.488 nM
kon [8]: 20500 M⁻¹ s⁻¹
binding result [9]: binds
Kd [5]: ≤ 0.48 nM
koff [5]: ≤ 1e-05 s⁻¹
B2: anti-TM4SF5 monoclonal antibody mEC2-C (antibody, V domains shown)
VH: QVQLEESGPGLVAPSQSLSIICTVSGFSLTSYGVTWVRQPPGKGLEWLGVIWSDGSTNYQSALISRLTISRDNSKSQAFLKLNSLQTDDTATYYCARPSNYYYFDYWGQGTTLTVSS
VL: DIVMTQSPSSLAVSAGERVTLSCKSSQSLFDRRTRKTYLAWYQQKPGQSPKLLISWASTRESGVPDRFTGSGSGTDFTLTISSVQAEDLAVYYCKQSYNLFTFGGGTKLEIK
notes: also called mouse anti-TM4SF5 monoclonal antibody; anti-hTM4SF5 monoclonal antibody
